Like-named read-outs stand apart in the source and are kept apart here.
Experiments:
C57BL/6 mice [1] = assay: LPS acute lung injury mouse model: BAL inflammatory mediators (Milliplex cytokine panel); assay type: in vivo; conditions: low dose LPS; F-652 4 μg i.v.; day 4
Description: (§1) After approval from the Tulane University, Institutional Animal Care and Use Committee (protocol ID 607), equal numbers of male and female, 6-8 week old C57BL/6 mice (Charles River Laboratories, Cambridge, Mass.) were given acute lung injury (ALI) via intra-tracheally administered LPS. After obtaining appropriate depth of anesthesia using isoflurane, the high-dose LPS group (HDG) received 100 μg of LPS administered intra-tracheally. Approximately 30 minutes after LPS administration, 4 μg of F-652 was administered via tail vein injection (n=11), then compared to animals receiving sham injection (n=8) with phosphate-buffered saline (PBS). In the low-dose LPS group (LDG), 33.3 μg of LPS was administered intra-tracheally. F-652 was again administered at 30 minutes (n=9) and compared to sham injected animals (n=9). The Interleukin-22:Fc (F-652) protein is a recombinant fusion protein (F-652) (Evive Biotech, Shanghai, China) with two human IL-22 molecules linked to the Fc portion of human immunoglobulin G2, which extends the half-life of the molecule.
Euthanasia and bronchoalveolar lavage (BAL) was carried out on post-injury day 4. After obtaining appropriate levels of anesthesia with inhaled isoflurane, the trachea was cannulated using a 26 gauge needle and BAL was performed with three successive washes using 1 mL of PBS. Next, a small segment of the left lower lobe was removed and saved for RNA isolation. Finally, 1 cc of 4% paraformaldehyde was injected to the lung for fixation.
The BAL fluid was then centrifuged at 500×gravity for 5 minutes. Cells were obtained from the BAL after centrifuge and cell counts performed. Cells were then affixed to glass slides and stained with Wright's stain. To quantify protein in the BAL supernatant, a Bradford protein assay (Bio-Rad Laboratories) was performed. Protein was quantified by measuring absorbance at 595 nm on a BMG Labtech FLUOstar Optima plate reader. In addition, the BAL supernatant was used to measure pro-inflammatory cytokines using a Milliplex Mouse Cytokine/Chemokine Magnetic Bead Panel (Millipore Sigma). The 32 cytokines measured included Eotaxin, Granulocyte Colony-Stimulating Factor (G-CSF), Granulocyte-Monocyte Colony-Stimulating Factor (GM-CSF), Interferon-γ (IFN-γ), Interleukin-1α (IL-1α), IL-1, IL-2, IL-3, IL-4, IL-5, IL-6, IL-7, IL-9, IL-10, IL-12 (p40 segment), IL-12 (p70 segment), IL-13, IL-15, IL-17, Interferon-γ induced protein 10 (IP-10), keratinocyte chemoattractant (KC), leukemia inhibitory factor (LIF), lipopolysaccharide-induced CXC chemokine (LIX), monocyte chemoattractant protein-1 (MCP-1), macrophage colony-stimulating factor (M-CSF), monokine induced by gamma-interferon (MIG), MIP-1α, macrophage inflammatory protein-1β/CCL4 (MIP-1β), MIP-2, regulated upon activation, normal T-cell expressed and presumably secreted (RANTES), tumor necrosis factor-α (TNF-α), vascular endothelial growth factor (VEGF). Human IL-22 was measured using an IL-22 Human ELISA kit (ThermoFisher Scientific). Mouse IL-22 was measured using an IL-22 Mouse/Rat Quantikine ELISA kit (R&D Systems).

C57BL/6 mice [2] = assay: LPS acute lung injury mouse model: BAL protein (Bradford assay); assay type: in vivo; conditions: F-652 4 μg i.v., day 4
Description: as §1, with “The Interleukin-22:Fc (F-652) protein is a recombinant fusion protein (F-652) (Evive Biotech, Shanghai, China) with two human IL-22 molecules linked to the Fc portion of human immunoglobulin G2, which extends the half-life of the molecule.” left out
The BAL fluid was then centrifuged at 500×gravity for 5 minutes. […] To quantify protein in the BAL supernatant, a Bradford protein assay (Bio-Rad Laboratories) was performed. Protein was quantified by measuring absorbance at 595 nm on a BMG Labtech FLUOstar Optima plate reader. […] Human IL-22 was measured using an IL-22 Human ELISA kit (ThermoFisher Scientific). Mouse IL-22 was measured using an IL-22 Mouse/Rat Quantikine ELISA kit (R&D Systems).

[3] = system: H1N1 influenza (A/PR8 strain); assay type: in vivo, C57BL/6 mice
[4] = system: H1N1 influenza (A/PR8 strain); assay type: in vivo, C57BL/6 mice; remark: listed apart in the source
[5] = system: H1N1 influenza (A/PR8 strain); assay type: in vivo, C57BL/6 mice; conditions: both aged and young H1N1-infected mice
[6] = system: H1N1 influenza (A/PR8 strain); assay type: in vivo, C57BL/6 mice; conditions: aged hosts; treated for 3 weeks
[7] = system: H1N1 influenza (A/PR8 strain)

B1: F-652: recombinant IL-22 dimer consisting of two monomeric subunits each comprising a sequence shown in SEQ ID NO: 24 (protein)
chain 1: APISSHCRLDKSNFQQPYITNRTFMLAKEASLADNNTDVRLIGEKLFHGVSMSERCYLMKQVLNFTLEEVLFPQSDRFQPYMQEVVPFLARLSNRLSTCHIEGDDLHIQRNVQKLKDTVKKLGESGEIKAIGELDLLFMSLRNACIGSGGGSGGGGSGGGGSVECPPCPAPPVAGPSVFLFPPKPKDTLMISRTPEVTCVVVDVSHEDPEVQFNWYVDGVEVHNAKTKPREEQFNSTFRVVSVLTVVHQDWLNGKEYKCKVSNKGLPASIEKTISKTKGQPREPQVYTLPPSREEMTKNQVSLTCLVKGFYPSDIAVEWESNGQPENNYKTTPPMLDSDGSFFLYSKLTVDKSRWQQGNVFSCSVMHEALHNHYTQKSLSLSPGK
chain 2: APISSHCRLDKSNFQQPYITNRTFMLAKEASLADNNTDVRLIGEKLFHGVSMSERCYLMKQVLNFTLEEVLFPQSDRFQPYMQEVVPFLARLSNRLSTCHIEGDDLHIQRNVQKLKDTVKKLGESGEIKAIGELDLLFMSLRNACIGSGGGSGGGGSGGGGSVECPPCPAPPVAGPSVFLFPPKPKDTLMISRTPEVTCVVVDVSHEDPEVQFNWYVDGVEVHNAKTKPREEQFNSTFRVVSVLTVVHQDWLNGKEYKCKVSNKGLPASIEKTISKTKGQPREPQVYTLPPSREEMTKNQVSLTCLVKGFYPSDIAVEWESNGQPENNYKTTPPMLDSDGSFFLYSKLTVDKSRWQQGNVFSCSVMHEALHNHYTQKSLSLSPGK
modifications: homodimer
Interleukin-2 in BAL (C57BL/6 mice [1]): 6.77 ± 1.75 pg/mL | Interleukin-3 in BAL (C57BL/6 mice [1]): 0.00 ± 0.00 pg/mL | Interleukin-4 in BAL (C57BL/6 mice [1]): 0.00 ± 0.00 pg/mL | Interleukin-5 in BAL (C57BL/6 mice [1]): 0.00 ± 0.00 pg/mL | Interleukin-6 in BAL (C57BL/6 mice [1]): 0.95 ± 0.62 pg/mL | Interleukin-7 in BAL (C57BL/6 mice [1]): 0.00 ± 0.00 pg/mL | Interleukin-9 in BAL (C57BL/6 mice [1]): 154.50 ± 37.46 pg/mL | Interleukin-10 in BAL (C57BL/6 mice [1]): 19.91 ± 6.56 pg/mL | Interleukin-12 (p40) in BAL (C57BL/6 mice [1]): 6.87 ± 1.88 pg/mL | Interleukin-12 (p70) in BAL (C57BL/6 mice [1]): 0.00 ± 0.00 pg/mL | Interleukin-13 in BAL (C57BL/6 mice [1]): 2.69 ± 0.93 pg/mL | Interleukin-15 in BAL (C57BL/6 mice [1]): 0.00 ± 0.00 pg/mL | Interleukin-17 in BAL (C57BL/6 mice [1]): 0.40 ± 0.06 pg/mL | Keratinocyte Chemoattractant/Growth Regulated Oncogene in BAL (C57BL/6 mice [1]): 9.11 ± 2.76 pg/mL | Macrophage Colony-Stimulating Factor in BAL (C57BL/6 mice [1]): 0.00 ± 0.00 pg/mL | Macrophage Inflammatory Protein-1α in BAL (C57BL/6 mice [1]): 15.62 ± 2.03 pg/mL | Macrophage Inflammatory Protein-1β in BAL (C57BL/6 mice [1]): 0.00 ± 0.00 pg/mL | Macrophage Inflammatory Protein-2 in BAL (C57BL/6 mice [1]): 20.45 ± 10.88 pg/mL | Monocyte Chemoattractant Protein in BAL (C57BL/6 mice [1]): 0.00 ± 0.00 pg/mL | Monocyte Induced by Interferon-γ in BAL (C57BL/6 mice [1]): 10.52 ± 4.73 pg/mL | Tumor Necrosis Factor-α in BAL (C57BL/6 mice [1]): 3.01 ± 1.79 pg/mL | Vascular Endothelial Growth Factor in BAL (C57BL/6 mice [1]): 3.01 ± 0.50 pg/mL | BAL protein (C57BL/6 mice [2]; high-dose LPS injury, sham 0.38): 0.55 µg/µL | BAL protein (C57BL/6 mice [2]; low-dose LPS injury, sham 0.25): 0.15 µg/µL | influenza specific CD8+ T cells (Total CD8+) compared to PBS control ([3]; aged mice, 3-week treatment): significantly decreased | lung infiltrating neutrophils and inflammatory monocytes compared to 3-week F-652 treatment ([3]; aged mice, 6-week F-652 treatment): even more decrease | lung infiltrating neutrophils and inflammatory monocytes compared to PBS control ([3]; aged mice, F-652 200 μg/kg weekly for 3 weeks, Days 62-65 post-infection): decreased significantly | CD8+ T cells expressing CD69+ or CD69+/CD103+ compared to PBS control ([3]; both young and aged hosts): decreased significantly | total number of CD8+ T cells ([3]; young mice, 3-week treatment): no significant difference | lung infiltrating neutrophils or inflammatory monocytes, PBS vs F-652 ([3]; young mice, treated for 3 weeks or 6 weeks): no significant difference | tissue dampening (G) by FOT ([4]; aged H1N1 infected mice, baseline/tidal breathing, 3-week treatment): less resistance in small airways | static compliance (Cst) from PV loops relative to PBS controls ([4]; aged mice): increased static compliance | impedance following maximization of available lung volume ([4]; following airway recruitment maneuver, aged and young): has no effect | hydroxyproline content of right lung lobes compared to PBS control [5]: significantly reduced | lung histology (H&E, Masson's Trichrome, Sirius Red, PAS) [6]: ameliorates much of the H1N1-induced pathology | mice lost during the treatment phase ([7]; aged mice, Days 21-64 post-infection, F-652 200 μg/kg once weekly for 3 weeks, no PBS treated mice lost): 3 mice | mice lost during the treatment phase ([7]; aged mice, F-652 200 μg/kg once weekly, 6-week treatment group): 2 mice | mice lost during the treatment phase ([7]; young groups, F-652 200 μg/kg once weekly): no mice were lost | body weight, F-652 vs PBS treatment groups ([7]; young or aged mice, Days 21-64 post-infection): no notable differences

From patent US20230079150A1, “METHODS FOR PREVENTION OR TREATMENT OF VIRUS-INDUCED ORGAN INJURY OR FAILURE WITH IL-22 DIMER” (priority 2020, published 2023)
